According to patent US20130177579A1 (BIOALLIANCE C V, published 2013):

What was measured:
[1] = target: T1, human transferrin receptor expressed by normal human cells (RBC, PMN, lymphocytes, monocytes, platelets, … (human, UniProt P02786 1-760)); assay: FACS, lymphocytes, donor D005, 1x
T1 construct: The assay is whole-cell FACS on normal donor cells; also called TfR on normal cells
Description: (§1) The hyper-immuned serum (Hyp-serum) or the corresponding cell marker antibodies for certain cell types were included as positive controls.
(§2) 1×10⁵ cells were seeded in each well of a v-bottomed 96-well plate and incubated with 50 μl of hybridoma culture supernatant at 1× and 10× dilution, or isotype control antibody mouse IgM, κ (BD™, Cat. No. 557275) at concentration of 1 μg/ml. A 300× dilution of human cell hyper-immune serum was used as binding positive control for all cell types. PE-conjugated anti-human CD41a (Southern Biotech™, Cat. No. 9391-09) was used as a positive control for staining human platelets. Anti-sialyl Lewis x antibody (Millipore™, Cat. No. MAB2096) was used as a positive control for staining human PMN. Anti-human CD31 (Hycult™, Cat. No. HM2039) was used as a positive control for staining HUVEC. After 30 minutes incubation at 4° C., cells were washed twice with 200 μl FACS buffer (1×PBS containing 1% FBS), stained with 50 μl of 1 μg/ml goat F(ab′)2-anti-mouse IgG(H+L)-PE (Southern Biotech™, Cat. No. 1032-09) or 1 μg/ml goat F(ab′)2-anti-mouse IgM(H+L)-PE (Southern Biotech™, Cat. No. 1022-09) in FACS buffer. After 30 minutes of incubation at 4° C., cells were washed twice with FACS buffer and analyzed by flow cytometry (BD LSR, BD Life Sciences).

[2] = target: human transferrin receptor expressed by nonhematopoietic cancer cells (human) (UniProt P02786); assay: cell-based or functional assay
human transferrin receptor expressed by nonhematopoietic cancer cells (human), sequence (P02786 whole entry G142S): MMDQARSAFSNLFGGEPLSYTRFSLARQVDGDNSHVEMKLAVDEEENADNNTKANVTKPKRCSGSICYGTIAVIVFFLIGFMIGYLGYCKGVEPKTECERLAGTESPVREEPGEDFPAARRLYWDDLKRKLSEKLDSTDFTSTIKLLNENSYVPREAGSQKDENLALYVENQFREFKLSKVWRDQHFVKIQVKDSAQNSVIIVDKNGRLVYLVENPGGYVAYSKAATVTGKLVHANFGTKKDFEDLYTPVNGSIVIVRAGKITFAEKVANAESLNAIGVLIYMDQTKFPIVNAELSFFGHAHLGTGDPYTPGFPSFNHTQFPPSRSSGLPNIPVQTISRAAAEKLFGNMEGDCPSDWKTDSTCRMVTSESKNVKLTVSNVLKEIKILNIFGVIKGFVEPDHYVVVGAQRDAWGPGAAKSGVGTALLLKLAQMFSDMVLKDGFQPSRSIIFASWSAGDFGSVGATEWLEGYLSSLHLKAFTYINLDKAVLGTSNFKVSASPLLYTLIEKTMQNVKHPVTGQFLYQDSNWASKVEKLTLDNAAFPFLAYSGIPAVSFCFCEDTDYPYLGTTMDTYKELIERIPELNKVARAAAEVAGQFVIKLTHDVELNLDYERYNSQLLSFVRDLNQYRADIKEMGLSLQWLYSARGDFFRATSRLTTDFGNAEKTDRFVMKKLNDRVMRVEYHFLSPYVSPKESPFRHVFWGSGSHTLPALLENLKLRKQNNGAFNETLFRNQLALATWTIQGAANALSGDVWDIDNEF

[3] = target: T1, human transferrin receptor expressed by …; assay: FACS, lymphocytes, donor D016, 1x
Description: as §1, §2

[4] = target: T1, human transferrin receptor expressed by …; assay: FACS, RBC, donor D016, 1/10x
Description: as §1, §2

[5] = target: T1, human transferrin receptor expressed by …; assay: FACS, RBC, donor D016, 1x
Description: as §1, §2

[6] = target: T1, human transferrin receptor expressed by …; assay: FACS, PMN, donor D102, 1x
Description: (§3) Preparation of PBMC and PMN: The whole blood was diluted with an equal volume of PBS and mixed with 1/10 volume of 15% Dextran solution. […] After centrifugation at 2200 rpm for 15 min (rotor: SORVALL, PN11788 and centrifuge: SORVALL, RT7), PBMC concentrated in the interface, were collected and washed with large volumes of FACS buffer (2% FBS in PBS) for future use. The PMN-rich pellet was collected, from which residual RBC was removed by hypotonic lysis in 0.2% NaCl.
as §2

[7] = target: T1, human transferrin receptor expressed by …; assay: FACS, monocytes, donor D102, 1/10x
Description: as §1, §2

[8] = target: T1, human transferrin receptor expressed by …; assay: FACS, lymphocytes, donor D016, 1/10x
Description: as §1, §2

[9] = target: T1, human transferrin receptor expressed by …; assay: FACS, PMN, donor D102, 1/10x
Description: as §3, §2

[10] = target: T1, human transferrin receptor expressed by …; assay: FACS, PMN, donor D016, 1/10x
Description: as §3, §2

[11] = target: T2, human transferrin receptor expressed by Jurkat cells (human, UniProt P02786 1-760); assay: FACS, Jurkat cells, 1X
T2 construct: Endogenous receptor on Jurkat cells; MEM189 was the positive control; also called TfR on T leukemia cell line Jurkat
T2 sequence (P02786 whole entry G142S): as above

[12] = target: T1, human transferrin receptor expressed by …; assay: FACS, platelets, donor D014, 1x
Description: as §1, §2

[13] = target: T1, human transferrin receptor expressed by …; assay: FACS, RBC, donor D005, 1/10x
Description: as §1, §2

[14] = target: T1, human transferrin receptor expressed by …; assay: FACS, RBC, donor D005, 1x
Description: as §1, §2

[15] = target: T1, human transferrin receptor expressed by …; assay: FACS, RBC, donor D014, 1/10x
Description: as §1, §2

[16] = target: T1, human transferrin receptor expressed by …; assay: FACS, monocytes, donor D102, 1x
Description: as §3, §2

[17] = target: T1, human transferrin receptor expressed by …; assay: FACS, HUVEC, 1/10x
Description: as §1, §2

[18] = target: T1, human transferrin receptor expressed by …; assay: FACS, monocytes, donor D005, 1x
Description: as §3, §2

T1 sequence (P02786 whole entry G142S): as above

Row | Binder | % positive cell binding [1] [%] | % positive cell binding [3] [%] | % positive cell binding [4] [%] | % positive cell binding [5] [%] | % positive cell binding [6] [%] | % positive cell binding [7] [%] | % positive cell binding [8] [%] | % positive cell binding [9] [%] | % positive cell binding [10] [%] | % of gated cells [11] [%] | % positive cell binding [12] [%] | % positive cell binding [13] [%] | % positive cell binding [14] [%] | % positive cell binding [15] [%] | % positive cell binding [16] [%] | % positive cell binding [17] [%] | % positive cell binding [18] [%] | other results
1 | antibody 55-31 (antibody, mouse IgM, V domains shown, Mouse IgM, kappa from a hybridoma; tested as hybridoma culture supernatant) VH: QVQLQQPGAELVKPGTSVKLSCKASGYNFTSYWINWVKLRPGQGLEWIGDIYPGSGSTNYNEKFKSKATLTVDTSSSTAYMQLSSLASEDSALYYCARSAYRYDWFAYWGQGTLVTVSA VL: DIQMTQSPASLSVSVGETVTITCRASENIYSNLAWYQQKQGKSPQLLVYAATNLADGVPSRFSGSGSGTQYSLKINSLQSEDFGSYYCQHFWGTPYTFGGGTKLEIKR | < 1 | 1 | 1 | 1 | 1 | 1 | 1 | 1 | < 1 | 1 | < 1 | < 1 | < 1 | 1 | 3 | 3 | 4 | percentage of Annexin V positive and/or PI positive cells; DU145; 1/2X (IgM 19.5) [2]: 31%; percentage of Annexin V positive and/or PI positive cells; DU145; 1/6X (IgM 19.5) [2]: 35.4%; percentage of Annexin V positive and/or PI positive cells; DU145; 1/18X (IgM 19.5) [2]: 23.6%
2 | antibody 6-90 (antibody, mouse IgM, V domains shown, Mouse IgM, kappa from a hybridoma; tested as hybridoma culture supernatant) VH: EVELQQFGIEMVKPGASVKISCKASGYIFTDYHMDWVRQSHGKSLEWIGDIDPKYDRVTYNQKFKGKASLTADKSSSTAYMELRSLTSEDTAVYYCAKTGAYGDYLAYWGQGTLVTVSA VL: DLVMTQTPLSLPVSLGDQASISCRSSQSLVHSDGNTYFYWYLQKPGQSPKLLIYKVSNRFSGVPDRFSAGGSGTYFTLKISRVEAEDLGVYFCSQTTHFPPTFGGGTKLEIKR | < 1 | 1 | 1 | 1 | 1 | 2 | 1 | 1 | < 1 | < 1 | < 1 | < 1 | < 1 | < 1 | 2 | 1 | 2 | percentage of Annexin V positive and/or PI positive cells; COLO205; 1/2X (IgM 19.1) [2]: 50.9%; percentage of Annexin V positive and/or PI positive cells; COLO205; 1/6X (IgM 19.1) [2]: 42.2%; percentage of Annexin V positive and/or PI positive cells; COLO205; 1/18X (IgM 19.1) [2]: 22.9%; percentage of Annexin V positive and/or PI positive cells; DLD1; 1/2X (IgM 24.3) [2]: 50.6%; percentage of Annexin V positive and/or PI positive cells; DLD1; 1/6X (IgM 24.3) [2]: 42.3%; percentage of Annexin V positive and/or PI positive cells; DLD1; 1/18X (IgM 24.3) [2]: 38.9%; percentage of Annexin V positive and/or PI positive cells; H358; 1/2X (IgM 31.8) [2]: 50.7%; percentage of Annexin V positive and/or PI positive cells; H358; 1/6X (IgM 31.8) [2]: 49%; percentage of Annexin V positive and/or PI positive cells; H358; 1/18X (IgM 31.8) [2]: 46.9%; percentage of Annexin V positive and/or PI positive cells; Panc 02.03B; 1/2X (IgM 19.0) [2]: 46.7%; percentage of Annexin V positive and/or PI positive cells; Panc 02.03B; 1/6X (IgM 19.0) [2]: 28.7%; percentage of Annexin V positive and/or PI positive cells; Panc 02.03B; 1/18X (IgM 19.0) [2]: 24.5%; percentage of Annexin V positive and/or PI positive cells; SNU-16; 1/2X (IgM 30.0) [2]: 40.2%; percentage of Annexin V positive and/or PI positive cells; SNU-16; 1/6X (IgM 30.0) [2]: 37.2%; percentage of Annexin V positive and/or PI positive cells; SNU-16; 1/18X (IgM 30.0) [2]: 34.8%
